This passage reports Ca^2+ transients (Calbryte 630 AM) in primary mouse astrocytes, light-induced increase in Ca^2+ signal (Calbryte 630 AM) in HEK 293T cells and Ca^2+ signal increase in HEK 293T cells results from patent publication US20250032577A1.

Assay [1] deals with Gq proteins.
In assay [2] the target is Gq proteins. The source holds these as a separate data set.
The target of assay [3] is Gq proteins. This is another data set of the same source.

Take Chicken Opn5 (receptor): the Ca^2+ transients (Calbryte 630 AM) in primary mouse astrocytes in assay [1] is 8 ΔF/F. Besides, the light-induced increase in Ca^2+ signal (Calbryte 630 AM) in HEK 293T cells in assay [2] was 3 ΔF/F.

On to Turtle Opn5 (receptor), for which the light-induced increase in Ca^2+ signal (Calbryte 630 AM) in HEK 293T cells in assay [2] was 3 ΔF/F. Turning to “human OPN4 (from UniProt Q9UHM6) (receptor)”, the Ca^2+ signal increase in HEK 293T cells in assay [3] was 1 ΔF/F. Same read-out and setting: for opto-a1AR (receptor) the value was 0.5 ΔF/F.
